{"source": "patent US9724388B2", "about": "“FGF-18 compound dosing regimen” (MERCK PATENT GMBH, priority 2014, dated 2017)", "key": {"[1]": {"test_system": "full-thickness defect in the articular cartilage of the trochlear groove", "format": "in vivo, rabbit", "settings": "for ICRS gross cartilage score: mean +/- SE", "from_the_text": "60 adult male, naïve, New Zealand White rabbits were used for this study. Animals were approximately 3-4 months of age. Rabbits underwent for creation of the cartilage defect in the right knee. A 2 mm by 6 mm full-thickness defect was made in the articular cartilage of the trochlear groove. The microfracture was created using 18 gauge needles; two 3 mm deep microfractures were made through the subchondral bone at the base of the defect, one proximally and one distally. Each microfracture hole was approximately 1.5 mm in diameter and the holes separated by 2 mm. The experiment consisted of the following six treatment groups, with 10 animals in each group for a total of 60 rabbits (Table 2). Rabbits in Groups 3, 4, 5 and 6 were treated with intra-articular rhFGF-18 in either one cycle of three weekly injections of 100 μg of rhFGF-18 (Group 3 and 5) or one cycle of three monthly injections 100 μg of rhFGF-18 (Group 4 and 6). All animals were euthanized and necropsied 6 months after surgery. [table]"}, "[2]": {"test_system": "medial meniscal tear in the right knee joint", "format": "in vivo, rat", "settings": "for overall morphology: three injections", "description": "After the sacrifice, the right knee was removed and decalcified in 5% formic acid for 4-6 d before cutting in half in the frontal plane and embedding in paraffin wax. Three sections were cut in 200 μm steps, stained with toluidine blue, and analyzed using ImagePro PIus™ software (Media Cybernetics). In scoring the three sections of the joint, the worst-case scenario for the two halves on each slide was determined for the cartilage lesion as the cartilage degeneration width (μm). This reflects the areas of tibial cartilage lesion in which both chondrocyte and proteoglycan loss extend ≧50% of the cartilage thickness. The measurement was taken over the area of greatest lesion severity in each of the three zones across the tibial surface.\nA treatment group Mean±SE for each score and measurement was determined.\nData was analyzed using a one-way analysis of variance (1-way ANOVA) or Kruskal-Wallis test (non-parametric), along with an appropriate multiple comparison post-test. Right knee caliper measurements were compared to left using a Student's t-test. Unless indicated, Bolder BioPATH, Inc. performs statistical analysis on raw (untransformed) data only. […] Significance for all tests was set at p≦0.05. Comparisons were made between each group and the vehicle control group, as well as between pairs.\nMale Lewis rats underwent surgery (under anesthesia with isoflurane) to induce a medial meniscal tear in the right knee joint. Animals were dosed IA with vehicle or FGF-18 on one of two different regimens (see table below), then terminated on day 105. Knees had caliper measurements taken at baseline and days 21, 42, 56, 84, and 105. Serum was evaluated for α2macroglobulin levels at baseline and on days 21, and 105, as well as one week after the final dose (day 42 or 84). Right knees were collected for histopathology evaluation."}, "[3]": {"settings": "in vivo; cited from earlier work"}, "[4]": {"test_system": "rat model of OA (ACLT with tMx)", "test": "ACLT+tMx rat OA model, intracycle dosing frequencies of sprifermin", "format": "in vivo", "description": "The goal of this study was to evaluate the effect of different intracycle dosing frequencies of the same total dosage (3×1 μg) of sprifermin on cartilage volume in a rat model of OA. The anterior cruciate ligament transection (ACLT) with resection of the medial meniscus (tMx) was performed as disclosed in example 1. Joints from male Lister Hooded Rats (200-260 g, Charles River) were used in this study. Animals were euthanized 18 weeks post-surgery.\nThe changes in the joint are related to clinical assessments in OA (cartilage loss, osteophytes, subchondral sclerosis). One μg sprifermin in saline was injected three times either weekly, every 2nd, every 3rd, every 4th or every 5th week and compared to appropriate vehicle groups. Body weight, joint diameters and clinical health scores were investigated weekly."}, "[5]": {"settings": "Group 4: no microfracture, 100 μg monthly x3"}, "[6]": {"settings": "Group 6: microfracture, 100 μg monthly x3"}, "[7]": {"settings": "microfracture, monthly for three months, non-significant"}, "[8]": {"settings": "microfracture, monthly for three months, significant"}, "[9]": {"settings": "microfracture, weekly for three weeks, significant"}, "[10]": {"settings": "no microfracture, monthly for three months, non-significant"}, "[11]": {"settings": "no microfracture, monthly for three months, significant"}}, "note": "Entries after “also recorded” stand apart in the source; their conditions may differ. Where two headings read alike, the source gives them in different places."}
{"molecule": "trFGF-18: recombinant truncated form of human FGF-18 (170 amino acids, SEQ ID NO: 2), produced in E. coli (protein, Recombinant truncated FGF-18(trFGF-18)) MEENVDFRIHVENQTRARDDVSRKQLRLYQLYSRTSGKHIQVLGRRISARGEDGDKYAQLLVETDTFGSQVRIKGKETEFYLCMNRKGKLVGKPDGTSKECVFIEKVLENNYTALMSAKYSGWYVGFTKKGRPRKGPKTRENQQDVHFMKRYPKGQPELQKPFKYTTVTK", "values": [{"measurement": "ICRS cartilage score", "setting": "[1]; [5]", "value": "2.1+/−0.3"}, {"measurement": "animals with intercondylar groove filled with cartilage (nearly normal to slightly roughened or granular)", "setting": "[1]; [5]", "value": "6/9"}, {"measurement": "ICRS gross cartilage score", "setting": "[1]; Group 5: microfracture, 100 μg weekly x3", "value": "1.9+/−0.3"}, {"measurement": "animals with groove 50% filled up to nearly completely filled with granular to coarsely granular cartilage", "setting": "[1]; [6]", "value": "7/10"}, {"measurement": "animals with intercondylar groove filled with cartilage", "setting": "[1]; [6]", "value": "3/10"}, {"measurement": "ICRS gross cartilage score", "setting": "[1]; [6]", "value": "2.4+/−0.2"}, {"measurement": "decrease in total width of the groove lesion", "setting": "[1]; [7]", "value": 19, "unit": "%"}, {"measurement": "decrease in width of the lesion with no viable cartilage", "setting": "[1]; [7]", "value": 69, "unit": "%"}, {"measurement": "increase in central MFC thickness", "setting": "[1]; [8]", "value": 106, "unit": "%"}, {"measurement": "increase in summed scores", "setting": "[1]; [8]", "value": 76, "unit": "%"}, {"measurement": "increases (toward normal) in all scored parameters and defect fill percent", "setting": "[1]; [8]", "value": "61-97%"}, {"measurement": "increase in total width of the groove lesion", "setting": "[1]; microfracture, weekly for three weeks", "value": 5, "unit": "%"}, {"measurement": "decrease in width of the lesion with no viable cartilage", "setting": "[1]; microfracture, weekly for three weeks, non-significant", "value": 59, "unit": "%"}, {"measurement": "increase in central MFC thickness", "setting": "[1]; [9]", "value": 112, "unit": "%"}, {"measurement": "increase in summed scores", "setting": "[1]; [9]", "value": 53, "unit": "%"}, {"measurement": "increases (toward normal) in all scored parameters and defect fill percent", "setting": "[1]; [9]", "value": "44-69%"}, {"measurement": "degeneration in sections", "setting": "[1]; no microfracture, monthly for three months, all sections, generally focal", "value": "minimal to severe"}, {"measurement": "increase in other scores", "setting": "[1]; [10]", "value": "20-23%"}, {"measurement": "increase in total width of the groove lesion", "setting": "[1]; [10]", "value": 36, "unit": "%"}, {"measurement": "decrease in width of the lesion with no viable cartilage", "setting": "[1]; [11]", "value": 94, "unit": "%"}, {"measurement": "increase in central MFC thickness", "setting": "[1]; [11]", "value": 120, "unit": "%"}, {"measurement": "increase in defect fill percentage", "setting": "[1]; [11]", "value": 48, "unit": "%"}, {"measurement": "increase in the defect fill score", "setting": "[1]; [11]", "value": 49, "unit": "%"}, {"measurement": "sections with cartilage hypertrophy", "setting": "[1]; rabbit, in vivo", "value": "All sections"}, {"measurement": "extent of injury over the tibial surface (histopathology), particularly collagen damage", "setting": "[2]; 10 μg IA, all regimens", "value": "generally increased"}, {"measurement": "severity of injury over the tibial surface (histopathology)", "setting": "[2]; 10 μg IA, all regimens", "value": "reducing its severity"}, {"measurement": "structural benefit", "setting": "[2]; bi-weekly injection scheme, 10 μg IA", "value": "provides interesting structural benefits"}, {"measurement": "structural benefit (joint scores, tibial cartilage degeneration width; FIGS. 3, 4, 5)", "setting": "[2]; monthly injection scheme, 10 μg IA", "value": "highest"}, {"measurement": "side effects of treatment (histopathology)", "setting": "[2]; rat, in vivo", "value": "cartilage hypertrophy, synovitis, and synovial fibrosis"}, {"measurement": "swelling in the treated knee", "setting": "[2]; rat, in vivo", "value": "significantly increased"}, {"measurement": "overall morphology", "setting": "[2]; once every 2 weeks (days 21, 35, 49)", "value": "good overall morphology"}, {"measurement": "overall morphology", "setting": "[2]; once monthly (days 21, 49, 77)", "value": "best overall morphology"}, {"measurement": "half-life in the joint", "setting": "[3]", "value": "less than 24 hours"}, {"measurement": "cartilage volume on medial tibia (FIG. 9)", "setting": "[4]; 1 μg/joint once every 3rd week, three injections, listed as rhFGF-18", "value": "pharmacologically meaningful and statistically significant difference over saline; also recorded: most beneficial structural outcome"}, {"measurement": "body weight gain", "setting": "[4]; 3 x 1 μg intra-articular injections", "value": "no influence"}, {"measurement": "cartilage denudation (stereology)", "setting": "[4]; 3 x 1 μg/joint", "value": "prevented more or less complete cartilage denudation"}, {"measurement": "cartilage volume", "setting": "[4]; all groups treated with rhFGF-18", "value": "higher cartilage volume values compared to placebo"}, {"measurement": "AUC of joint diameters", "setting": "[4]; injected every fifth week", "value": "the same as with saline injections"}, {"measurement": "joint diameters, differences between regimens", "setting": "[4]; injections every 2nd, 3rd or 4th week", "value": "No significant differences"}, {"measurement": "joint diameters (AUC, FIG. 8)", "setting": "[4]; injections in week 3, 4 and 5 vs injections in week 3, 8 and 13", "value": "significantly higher"}]}
